{
  "source": "patent US20040265797A1",
  "molecular_target": "Vitronectin purified from human plasma (human) (UniProt P04004)",
  "sequence (P04004 20-478)": "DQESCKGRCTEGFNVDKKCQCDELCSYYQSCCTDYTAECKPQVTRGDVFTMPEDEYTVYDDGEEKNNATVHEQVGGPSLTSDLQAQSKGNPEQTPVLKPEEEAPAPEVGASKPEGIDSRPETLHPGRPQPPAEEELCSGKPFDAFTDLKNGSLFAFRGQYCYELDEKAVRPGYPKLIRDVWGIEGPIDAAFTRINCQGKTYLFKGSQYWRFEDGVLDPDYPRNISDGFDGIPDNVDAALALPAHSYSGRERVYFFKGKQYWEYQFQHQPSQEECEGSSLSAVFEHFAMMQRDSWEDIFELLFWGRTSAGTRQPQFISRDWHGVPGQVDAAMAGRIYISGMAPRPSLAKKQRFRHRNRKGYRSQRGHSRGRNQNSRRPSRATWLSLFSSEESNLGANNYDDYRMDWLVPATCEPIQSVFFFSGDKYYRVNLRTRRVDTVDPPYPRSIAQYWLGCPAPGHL",
  "assay": "ELISA: biotinylated suPAR without uPA1-48 on vitronectin-coated wells",
  "data": [
    {"substance": "Soluble recombinant human urokinase receptor (suPAR) (from UniProt Q03405 23-299)", "values": [
      {"measurement": "mean absorbance at 450 nm", "value": 0.03, "unit": "OD450"}
    ]}
  ]
}
